Assays:
Test in all cases: ITC; synthetic peptide in the syringe titrated into GD-26 Fab or GD-26 IgG (10 μM) in the cell; 25 °C; 50 mM Tris, 150 mM NaCl, pH 7.5; one-set-of-sites model
Details in all cases: both partners purified
[1] = target: T1, TD peptide N4 (Gly1 to Ala4 deleted) (Haloarcula marismortui (strain ATCC …))
T1 construct: TD peptide residues 5-9 (Gly1, Thr2, Gly3 and Ala4 deleted); numbers count on: the TD peptide; source: synthetic peptide
T1 chain: TPADD

[2] = target: T2, TD peptide C1 (Asp9 removed) (Haloarcula marismortui (strain ATCC …))
T2 construct: TD peptide residues 1-8 (Asp9 removed); numbers count on: the TD peptide; source: synthetic peptide
T2 chain: GTGATPAD

TD peptide A7H = target: T3, TD peptide A7H (A7H (stands in the printed letters))
T3 construct: TD peptide (C terminus of HmBRI) with A7H; numbers count on: the TD peptide; source: synthetic peptide
T3 chain: GTGATPHDD

TD peptide P6F = target: T4, TD peptide P6F (P6F (stands in the printed letters))
T4 construct: TD peptide (C terminus of HmBRI) with P6F; numbers count on: the TD peptide; source: synthetic peptide
T4 chain: GTGATFADD

TD peptide P6A = target: T5, TD peptide P6A (P6A (stands in the printed letters))
T5 construct: TD peptide (C terminus of HmBRI) with P6A; numbers count on: the TD peptide; source: synthetic peptide
T5 chain: GTGATAADD

[3] = target: T6, TD peptide C2 (Asp8 and Asp9 removed) (Haloarcula marismortui (strain ATCC …))
T6 construct: TD peptide residues 1-7 (Asp8 and Asp9 removed); numbers count on: the TD peptide; source: synthetic peptide
T6 chain: GTGATPA

TD peptide A7W = target: T7, TD peptide A7W (A7W (stands in the printed letters))
T7 construct: TD peptide (C terminus of HmBRI) with A7W; numbers count on: the TD peptide; source: synthetic peptide
T7 chain: GTGATPWDD

binding result [1]: no binding
Kd [2]: 273 nM
Kd (TD peptide A7H): 94 nM
Kd (TD peptide P6F): 78.2 nM
Kd (TD peptide P6A): 140 nM
binding result [3]: no binding
Kd (TD peptide A7W): 34.4 nM
B1: GD-26 Fab (antigen-binding fragment of monoclonal antibody GD-26) (Fab, V domains shown)
VH: QVQLRQSGPELVKPGASVKMSCRASGYTFTNYNIHWVRQRPGQGLEWIGWIYPVDGTTKYNEKFKDKTTLTSDKSSSTAYMSLSGLTSEDSAIYFCARGLDNWGQGTSVTVSS
VL: DVVLTQTPLSLSVTIGQPASISCRSSQRLLYSNGKTYLNWFQQRPGQAPKYLMFQVSKLGPGIPARFSGSGSETDFTLKISRVEAEDLGVYYCFQGTFFPHTFGGGTKLEMK
notes: Fab heavy chain of GD-26; whole chain in PDB 7DOH; light chain of GD-26; the Fab was secreted; source: Expi293F, transient co-transfection, secreted; purified (HisTrap Excel, Superdex 200 gel filtration)
